Assays:
[1] = target: T1, His-tagged monkey TROP2 protein (cynomolgus monkey; Rhesus …, UniProt A0A5F8AGB8 27-274); test: SPR Biacore 8K, Ab on Protein A chip
T1 construct: also called cTROP2-His; ACRO Biosystems Cat# TR2-R52H3
T1 sequence: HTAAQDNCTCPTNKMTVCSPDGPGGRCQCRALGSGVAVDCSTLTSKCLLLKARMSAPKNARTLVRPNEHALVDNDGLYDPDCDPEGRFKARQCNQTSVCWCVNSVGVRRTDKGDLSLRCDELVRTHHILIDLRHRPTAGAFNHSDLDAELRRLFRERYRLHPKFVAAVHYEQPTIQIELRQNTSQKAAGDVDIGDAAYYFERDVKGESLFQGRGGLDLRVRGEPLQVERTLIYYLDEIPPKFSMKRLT

[2] = target: T2, TROP2 on NCI-H1975 and NUGC-4 tumor cells (UniProt P09758 27-323, limits assumed); test: flow cytometry on NUGC-4 cells (only TROP2 expression), anti-hIgG-Fc Alexa Fluor 647 secondary antibody, MFI [B]
T2 construct: whole, on cells; species of the lines is not worded there; also called TROP2 on cells
T2 sequence (looked up): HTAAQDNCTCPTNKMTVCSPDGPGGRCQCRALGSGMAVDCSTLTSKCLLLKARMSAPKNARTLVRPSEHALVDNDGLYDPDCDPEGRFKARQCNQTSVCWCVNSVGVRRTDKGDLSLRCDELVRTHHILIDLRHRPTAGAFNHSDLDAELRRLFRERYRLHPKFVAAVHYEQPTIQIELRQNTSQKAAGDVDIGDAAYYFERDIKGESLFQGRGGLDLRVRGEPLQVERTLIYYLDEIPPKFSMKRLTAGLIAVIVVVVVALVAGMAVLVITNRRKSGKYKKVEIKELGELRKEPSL
Protocol: This experiment was performed to test the binding activities of the anti-PTK7/TROP2 bispecific antibodies to different tumor cell lines. NCI-H1975 cells or NUGC-4 cells were transferred to a 96-well plate at a density of 5×10⁴ cells/well respectively. The sample antibody was added to the 96-well plate, and incubated at 4° C. for 30 min.

Kd [1]: 3.16 nM
koff [1]: 0.00104 s⁻¹
kon [1]: 329000 M⁻¹ s⁻¹
EC50 (read off the curve) [2]: ~0.6 µg/mL
B1: 3C4-18E9 (bispecific antibody, human IgG1, V domains shown)
VH 1: QVQLEQSRAEVKKPGESLRISCKGSGYSFTSYWISWVRQMPGKGLEWMGRIDPSDSYTNYNPSFQGHVTISADKSISTAYLQWSSLKASDTAMYYCARRDGSYFDFDYWGQGTLVTVSS
VH 2: QLQLQQSGPGLLKPSETLSLTCTVSGGSISSSYYFWGWIRQPPGKGLEWIGAIYYIGNTHYNPSLKSRVTISIDTSKNQFSLNLNSVTAADTAIYYCARYEDTWNWFDPWGQGTLVTVSS
VL: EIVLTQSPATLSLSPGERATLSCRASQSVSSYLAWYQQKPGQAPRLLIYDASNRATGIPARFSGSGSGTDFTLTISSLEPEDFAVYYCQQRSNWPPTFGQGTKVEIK
notes: which arm carries the knob is stated only for 3C4-6F7; also called anti-PTK7/TROP2 bispecific antibody 3C4-18E9

From patent publication US20260250421A1 (BIOCYTOGEN PHARMACEUTICALS BEIJING, published 2026)
